The results in this text go back to patent US20110088129A1.

Experiment [1] addresses binding sites in brush border membrane vesicles (BBMV) from midguts of last instar Helicoverpa zea larvae (Helicoverpa zea). The experiment can be described thus: homologous competition on H. zea BBMV.
For experiment [2], the target named is binding sites in brush border membrane vesicles (BBMV) from midguts of last instar Helicoverpa armigera larvae (Helicoverpa armigera). The experiment can be described thus: homologous competition, 125I-Cry2Ab on H. armigera BBMV, LIGAND program.
Experiment [3] addresses binding sites in brush border membrane vesicles (BBMV) from midguts of last instar Helicoverpa zea larvae (Helicoverpa zea). The experiment can be described thus: homologous competition, 125I-Cry2Ab on H. zea BBMV, LIGAND program.
In experiment [4] the target is binding sites in brush border membrane vesicles (BBMV) from midguts of last instar Helicoverpa armigera larvae (Helicoverpa armigera). Kind of experiment: homologous competition on H. armigera BBMV.
The target is the same in experiment [5]. The experiment can be described thus: direct saturation assay, increasing 125I-Cry2Ab on fixed H. armigera BBMV (0.2 mg/ml).

B1: Cry2Ab toxin (trypsin-activated Cry2Ab2 from recombinant B. thuringiensis strain BtIPS78/11) (ligand)
chain: NAVPLSITSSVNTMQQLFLNRLPQFQMQGYQLLLLPLFAQAANLHLSFIRDVILNADEWGISAATLRTYRDYLKNYTRDYSNYCINTYQSAFKGLNTRLHDMLEFRTYMFLNVFEYVSIWSLFKYQSLLVSSGANLYASGSGPQQTQSFTSQDWPFLYSLFQVNSNYVLNGFSGARLSNTFPNIVGLPGSTTTHALLAARVNYSGGISSGDIGASPFNQNFNCSTFLPPLLTPFVRSWLDSGSDREGVATVTNWQTESFETTLGLRSGAFTARGNSNYFPDYFIRNISGVPLVVRNEDLRRPLHYNEIRNIASPSGTPGGARAYMVSVHNRKNNIHAVHENGSMIHLAPNDYTGFTISPIHATQVNNQTRTFISEKFGNQGDSLRFEQNNTTARYTLRGNGNSYNLYLRVSSIGNSTIRVTINGRVYTATNVNTTTNNDGVNDNGARFSDINIGNVVASSNSDVPLDINVTLNSGTQFDLMNIMLVPTNISPLY
modifications: 125I label (chloramine T method) where used as the labelled ligand
Take B1: in experiment [1], the fold difference in concentration of binding sites between Cry2Ab and Cry1Ac turned out to be 3 fold; the fold higher Kd than Cry1Ac is 35 fold. Besides, in experiment [2], the Kd was determined as 3.1 nM and the Rt (binding site concentration) (pmol/mg BBMV protein) was 2.5. In experiment [3], the Kd amounted to 5.9 nM and the Rt (binding site concentration) (pmol/mg BBMV protein) came out at 2.7. In experiment [4], this molecule showed a fold difference in concentration of binding sites between Cry2Ab and Cry1Ac of 3 fold; a fold higher Kd than Cry1Ac of 35 fold. Further, in experiment [5], the concentration at which binding reached a maximum was 20 nM and the concentration at which the saturation curve deviated from linearity came out at 5 nM.
